Data taken from US20090170763A1 (KENJI KANGAWA, published 2009).
Like-named read-outs stand apart in the source and are kept apart here. Each block holds one molecule with its values, some of them ahead of it. Numbered stars: 1 amine (or outer) side, 2 acyl side, 3 side chain; on linkers, the order of the positions; unused ones are H or OH. Square brackets hold non-standard residues; d marks the D form. Ends that are not written are not given here. * marks the point of attachment. Ethylenediamine = C(CN[*:2])N[*:1]; Palmitoyl = CCCCCCCCCCCCCCCC(=O)*; Lauroyl = CCCCCCCCCCCC(=O)*; Decanoyl = CCCCCCCCCC(=O)*; Octanoyl = CCCCCCCC(=O)*; Hexanoyl = CCCCCC(=O)*; NHBn = c1ccc(CN*)cc1; Butyryl = CCCC(=O)*; Ava = NCCCCC(=O)O; Octyl = CCCCCCCC*

Assays:
[1] = molecular target: rat GHS-R (GHS receptor) expressed on CHO-GHSR62 cells (rat) (UniProt O08725); assay: cell-based or functional assay
[2] = molecular target: amino-terminal antibody (anti-[C-Cys]-rat ghrelin [1-11] antigen); assay: radioimmunoassay: inhibition of binding of radioisotope-labeled rat ghrelin to the amino-terminal antibody
[3] = molecular target: T1, rat GHS-R (GHS receptor) expressed on CHO-GHSR62 cells (rat, UniProt O08725 1-364); assay: cell-based or functional assay
[4] = molecular target: T1, rat GHS-R (GHS receptor) expressed on …; assay: cell-based or functional assay; remark: listed apart in the source
[5] = molecular target: T1, rat GHS-R (GHS receptor) expressed on …; assay: cell-based or functional assay; remark: listed apart in the source
[6] = molecular target: T1, rat GHS-R (GHS receptor) expressed on …; assay: cell-based or functional assay; remark: listed apart in the source
[7] = molecular target: T1, rat GHS-R (GHS receptor) expressed on …; assay: cell-based or functional assay; remark: listed apart in the source
[8] = molecular target: T1, rat GHS-R (GHS receptor) expressed on …; assay: cell-based or functional assay; remark: listed apart in the source
[9] = molecular target: T1, rat GHS-R (GHS receptor) expressed on …; assay: cell-based or functional assay; remark: listed apart in the source
[10] = molecular target: T1, rat GHS-R (GHS receptor) expressed on …; assay: cell-based or functional assay; remark: listed apart in the source
[11] = molecular target: T1, rat GHS-R (GHS receptor) expressed on …; assay: cell-based or functional assay; remark: listed apart in the source

T1 sequence (O08725 whole entry): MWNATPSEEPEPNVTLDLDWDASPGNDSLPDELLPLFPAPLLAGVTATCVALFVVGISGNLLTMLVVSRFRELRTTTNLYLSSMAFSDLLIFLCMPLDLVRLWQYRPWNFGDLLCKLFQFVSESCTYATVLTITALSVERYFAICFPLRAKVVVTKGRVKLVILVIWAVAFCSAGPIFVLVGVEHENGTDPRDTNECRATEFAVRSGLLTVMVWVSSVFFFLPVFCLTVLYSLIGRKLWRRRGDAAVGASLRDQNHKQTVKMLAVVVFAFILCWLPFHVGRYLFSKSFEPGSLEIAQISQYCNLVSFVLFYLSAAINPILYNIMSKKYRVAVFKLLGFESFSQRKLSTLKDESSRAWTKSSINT
Chain of rat GHS-R (GHS receptor) expressed on CHO-GHSR62 cells (rat) (O08725 whole entry): as above

Molecule: [D-Lys 3]-GHRP-6 (peptide)
inhibition of the Ca-releasing activity of ghrelin [1]: 100 µM

Molecule: [Aib^1,His^2,^DNal^3,^DPhe^4,Lys^5]-Ghrelin (1-5)-amide (peptide)
Activity EC50 [1]: 2.5 nM
EC50 value [1]: 2.5 nM

Molecule: [N-Aminopentanoyl,^DSer^3(Octyl),^DPhe^4,Lys^5]-Ghrelin (3-5)-amide (peptide)
Activity EC50 [1]: 1600 nM

Molecule: [N-Aminopentanoyl,Ser^3(Octyl),Lys^5]-Ghrelin (3-5)-amide (peptide)
Activity EC50 [1]: 12 nM

Molecule: GSLFLSPEHQRVQQRKESKKPPAKLQPR [[Leu^3]-hGhrelin]
Activity EC50 [3]: 4400 nM

Molecule: KESKKPPAKLQPR (not fully specified) [Ghrelin (16-28)]
Ca-releasing activity EC50 [5]: > 10000 nM
Ca-releasing activity (EC50, nM) [6]: > 10000 nM

Molecule: GSFFLSPEHQRVQQRKESKKPPAKLQPR [[Phe^3]-hGhrelin]
Activity EC50 [3]: 2000 nM

Molecule: GSS(Ac)FLSPEHQKAQQRKESKKPPAKLQPR [[Ser^3(Acetyl)]-rGhrelin]
Ca-releasing activity EC50 [4]: 780 nM
Ca-releasing activity (EC50, nM) [6]: 780 nM

B1: [Ser^2(Octanoyl), Ser^3]-Ghrelin (1-9)-amide (peptide)
peptide: GS(Octanoyl)SFLSPEH-NH2
modifications: N-terminus assumed
SMILES: CCCCCCCC(=O)OC[C@H](NC(=O)CN)C(=O)N[C@@H](CO)C(=O)N[C@@H](Cc1ccccc1)C(=O)N[C@@H](CC(C)C)C(=O)N[C@@H](CO)C(=O)N1CCC[C@H]1C(=O)N[C@@H](CCC(=O)O)C(=O)N[C@@H](Cc1c[nH]cn1)C(N)=O
Ca-releasing activity EC50 [8]: 1100 nM

Molecule: [Ava]S(Octyl)FL-NHEt [[N-Aminopentanoyl,Ser^3(Octyl)]-Ghrelin (3-5)-ethylamide]
Activity EC50 [9]: 22 nM

Molecule: GSS(Octanoyl)FLSPEHQ [Ghrelin (1-10)]
Ca-releasing activity EC50 [10]: 19 nM
Ca-releasing activity (EC50, nM) [6]: 19 nM

Molecule: [Ava]S(Octyl)FL-Ethylenediamine [[N-Aminopentanoyl,Ser^3(Octyl)]-Ghrelin (3-5)-aminoethylamide]
Activity EC50 [9]: 3.5 nM

B2: [N-Aminopentanoyl,Ser^3(Octyl)]-Ghrelin (3-5)-amide (peptide)
peptide: [Ava]S(Octyl)FL-NH2
modifications: N-terminus assumed
SMILES: CCCCCCCCOC[C@H](NC(=O)CCCCN)C(=O)N[C@@H](Cc1ccccc1)C(=O)N[C@@H](CC(C)C)C(N)=O
Activity EC50 [9]: 11 nM

Molecule: GSIFLSPEHQRVQQRKESKKPPAKLQPR [[Ile^3]-hGhrelin]
Activity EC50 [3]: > 10000 nM

Molecule: [Ava]S(Octyl)FL-NHMe [[N-Aminopentanoyl,Ser^3(Octyl)]-Ghrelin (3-5)-methylamide]
Activity EC50 [9]: 12 nM

Molecule: [Ava]S(Octyl)FL-NHBn [[N-Aminopentanoyl,Ser^3(Octyl)]-Ghrelin (3-5)-benzylamide]
Activity EC50 [9]: 98 nM

B3: Ghrelin (1-9)-amide (peptide)
peptide: GSS(Octanoyl)FLSPEH-NH2
modifications: N-terminus assumed
SMILES: CCCCCCCC(=O)OC[C@H](NC(=O)[C@H](CO)NC(=O)CN)C(=O)N[C@@H](Cc1ccccc1)C(=O)N[C@@H](CC(C)C)C(=O)N[C@@H](CO)C(=O)N1CCC[C@H]1C(=O)N[C@@H](CCC(=O)O)C(=O)N[C@@H](Cc1c[nH]cn1)C(N)=O
Ca-releasing activity EC50 [8]: 5.4 nM

Molecule: GS(Octanoyl)S(Octanoyl)FLSPEH-NH2 [[Ser^2(Octanoyl)]-Ghrelin (1-9)-amide]
Ca-releasing activity EC50 [8]: 1400 nM

Molecule: Ac-GSS(Octanoyl)FLSPEHQ [[N-Acetyl]-Ghrelin (1-10)]
Ca-releasing activity EC50 [11]: > 10000 nM

Molecule: GSS(Octanoyl)FLSPEH [Ghrelin (1-9)]
Ca-releasing activity EC50 [10]: 38 nM
Ca-releasing activity (EC50, nM) [6]: 38 nM

B4: [N-Octanoyl, Ser^3]-Ghrelin (1-9)-amide (peptide)
peptide: Octanoyl-GSSFLSPEH-NH2
SMILES: CCCCCCCC(=O)NCC(=O)N[C@@H](CO)C(=O)N[C@@H](CO)C(=O)N[C@@H](Cc1ccccc1)C(=O)N[C@@H](CC(C)C)C(=O)N[C@@H](CO)C(=O)N1CCC[C@H]1C(=O)N[C@@H](CCC(=O)O)C(=O)N[C@@H](Cc1c[nH]cn1)C(N)=O
Ca-releasing activity EC50 [8]: > 10000 nM

Molecule: GSS(Octanoyl)F [Ghrelin (1-4)]
Ca-releasing activity EC50 [10]: 480 nM
Ca-releasing activity (EC50, nM) [6]: 480 nM

Molecule: GSS(Butyryl)FLSPEHQKAQQRKESKKPPAKLQPR [[Ser^3(Butyryl)]-rGhrelin]
Ca-releasing activity EC50 [4]: 280 nM
Ca-releasing activity (EC50, nM) [6]: 280 nM

Molecule: GSKFLSPEHQRVQQRKESKKPPAKLQPR [[Lys^3]-hGhrelin]
Activity EC50 [3]: 120 nM

B6: [N-Aminopentanoyl]-Ghrelin (3-7)-amide (peptide)
peptide: [Ava]S(Octanoyl)FLSP-NH2
modifications: N-terminus assumed
SMILES: CCCCCCCC(=O)OC[C@H](NC(=O)CCCCN)C(=O)N[C@@H](Cc1ccccc1)C(=O)N[C@@H](CC(C)C)C(=O)N[C@@H](CO)C(=O)N1CCC[C@H]1C(N)=O
Ca-releasing activity EC50 [11]: 3.4 nM

B7: [Leu^2]-Ghrelin (1-7)-amide (peptide)
peptide: GLS(Octanoyl)FLSP-NH2
modifications: N-terminus assumed
SMILES: CCCCCCCC(=O)OC[C@H](NC(=O)[C@H](CC(C)C)NC(=O)CN)C(=O)N[C@@H](Cc1ccccc1)C(=O)N[C@@H](CC(C)C)C(=O)N[C@@H](CO)C(=O)N1CCC[C@H]1C(N)=O
Ca-releasing activity EC50 [11]: 42 nM

Molecule: GSS(Octanoyl)FLSPE [Ghrelin (1-8)]
Ca-releasing activity EC50 [10]: 100 nM
Ca-releasing activity (EC50, nM) [6]: 100 nM

Now from value to molecule:

cross-reactivity [2]: 100%
Molecule: human ghrelin (peptide)

Ca-releasing activity EC50 [4]: 2.4 nM
Molecule: GSS(Lauroyl)FLSPEHQKAQQRKESKKPPAKLQPR [[Ser^3(Lauroyl)]-rGhrelin]

Ca-releasing activity EC50 [7]: > 10000 nM
Molecule: GS[dS](Octyl)FLSP-NH2 [[^DSer^3(Octyl)]-Ghrelin (1-7)-amide]

Ca-releasing activity EC50 [4]: 3500 nM
Molecule: GSSFLSPEHQKAQQRKESKKPPAKLQPR [[Ser^3]-rat Ghrelin]

Ca-releasing activity EC50 [5]: 8.6 nM
Ca-releasing activity (EC50, nM) [6]: 8.6 nM
Molecule: GSS(Octanoyl)FLSPEHQKAQQR [rGhrelin (1-15)]

Ca-releasing activity EC50 [4]: 16 nM
cross-reactivity [2]: 0.3%
Ca-releasing activity (EC50, nM) [6]: 16 nM
Molecule: GSS(Hexanoyl)FLSPEHQKAQQRKESKKPPAKLQPR [[Ser^3(Hexanoyl)]-rGhrelin]

Activity EC50 [3]: 1600 nM
Molecule: GSVFLSPEHQRVQQRKESKKPPAKLQPR [[Val^3]-hGhrelin]

Ca-releasing activity EC50 [7]: > 10000 nM
Molecule: GS[dS](Octyl)[dF]LSP-NH2 [[^DSer^3(Octyl),^DPhe^4]-Ghrelin (1-7)-amide]

Ca-releasing activity EC50 [4]: 1.7 nM
cross-reactivity [2]: 20%
Ca-releasing activity (EC50, nM) [6]: 2.6 nM
Molecule: GSS(Decanoyl)FLSPEHQKAQQRKESKKPPAKLQPR [[Ser^3(Decanoyl)]-rGhrelin]

Ca-releasing activity EC50 [5]: 7 nM
Ca-releasing activity (EC50, nM) [6]: 7 nM
Molecule: GSS(Octanoyl)FLSPEHQRVQQR [hGhrelin (1-15)]

Activity EC50 [3]: 31 nM
Molecule: GSWFLSPEHQRVQQRKESKKPPAKLQPR [[Trp^3]-hGhrelin]

Ca-releasing activity EC50 [4]: 6.5 nM
Ca-releasing activity (EC50, nM) [6]: 3.1 nM
Molecule: GSS(Palmitoyl)FLSPEHQKAQQRKESKKPPAKLQPR [[Ser^3(Palmitoyl)]-rGhrelin]

Ca-releasing activity EC50 [7]: 5.8 nM
B5: [Ser^3(Octyl)]-Ghrelin (1-7)-amide (peptide)
peptide: GSS(Octyl)FLSP-NH2
modifications: N-terminus assumed
SMILES: CCCCCCCCOC[C@H](NC(=O)[C@H](CO)NC(=O)CN)C(=O)N[C@@H](Cc1ccccc1)C(=O)N[C@@H](CC(C)C)C(=O)N[C@@H](CO)C(=O)N1CCC[C@H]1C(N)=O

Ca-releasing activity EC50 [7]: 2200 nM
Molecule: GSS(Octyl)[dF]LSP-NH2 [[Ser^3(Octyl),^DPhe^4]-Ghrelin (1-7)-amide]

Ca-releasing activity EC50 [5]: 1.5 nM
Ca-releasing activity (EC50, nM) [6]: 2.8 nM
Molecule: GSS(Octanoyl)FLSPEHQKAQRKESKKPPAKLQPR [rat ghrelin-27]
